In article PMC7939390 (The Journal of Biological Chemistry, 2020):
No end group written: not given here. *: point of attachment. FITC = O=C1OC2(c3ccc(O)cc3Oc3cc(O)ccc32)c2ccc(NC(=S)*)cc21

Tests used:
[1] = test system: E. coli EJ801 (ΔponB-ponA^ts); test: microscopy of EJ801 cells, cell morphology and length; format: cell-based, Escherichia coli; parameters: cell length L: unit not given here; details: EJ801 after 1 h at 42 °C, n = 250, phase contrast, ImageJ/ObjectJ
Protocol: Samples were taken from the complementation cultures (42 °C) at different time (1-h intervals), and the cells were fixed as described ([63]). Photographs were taken with a cooled AxioCam MRm (Zeiss) mounted on a Zeiss Axio Imager. Z1 microscope, and the images were acquired in phase-contrast mode using the AxioVision Rel. 4.5 (Zeiss) software. The cell morphologies analysis were determined using ImageJ software (RRID:SCR_003070) running under plugin ObjectJ (RRID:SCR_019190).

PBP1b R141A/R397A = target: T1, PBP1b R141A/R397A (E. coli, UniProt P02919 1-844, R141A | R397A); test: cell-based or functional assay
T1 sequence (looked up): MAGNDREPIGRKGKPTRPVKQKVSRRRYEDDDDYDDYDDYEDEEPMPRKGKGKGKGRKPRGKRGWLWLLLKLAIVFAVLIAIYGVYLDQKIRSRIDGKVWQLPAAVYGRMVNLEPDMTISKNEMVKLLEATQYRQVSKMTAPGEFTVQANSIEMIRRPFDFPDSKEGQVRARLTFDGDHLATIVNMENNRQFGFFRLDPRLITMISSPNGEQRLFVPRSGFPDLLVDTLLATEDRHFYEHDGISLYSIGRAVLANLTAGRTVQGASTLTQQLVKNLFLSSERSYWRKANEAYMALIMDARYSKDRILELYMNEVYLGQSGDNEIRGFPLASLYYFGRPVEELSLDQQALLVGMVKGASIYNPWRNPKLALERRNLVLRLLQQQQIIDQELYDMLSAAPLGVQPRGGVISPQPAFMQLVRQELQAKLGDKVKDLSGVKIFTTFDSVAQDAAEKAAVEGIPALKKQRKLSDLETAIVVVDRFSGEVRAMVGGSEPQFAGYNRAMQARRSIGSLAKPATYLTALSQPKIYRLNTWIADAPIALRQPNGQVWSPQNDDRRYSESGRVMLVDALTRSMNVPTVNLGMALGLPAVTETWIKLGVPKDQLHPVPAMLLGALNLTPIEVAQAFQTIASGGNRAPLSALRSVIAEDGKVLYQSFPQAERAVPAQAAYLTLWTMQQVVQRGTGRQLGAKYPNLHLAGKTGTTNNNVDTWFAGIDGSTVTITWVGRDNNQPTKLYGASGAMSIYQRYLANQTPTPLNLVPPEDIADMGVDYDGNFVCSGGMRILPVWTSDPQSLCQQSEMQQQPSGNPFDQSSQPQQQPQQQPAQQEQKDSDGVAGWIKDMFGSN

PBP1b (positions 58–804) = target: T2, PBP1b (positions 58–804) (E. coli, UniProt P02919 58-804); test: crystal structure; co-crystallization of PBP1b (Lys58–Ser804) with moenomycin A (1:1) and EFtsN peptide (3:1), hanging drop, 20 °C; 2.4 Å; details: both partners purified
T2 construct: Crystallized with moenomycin A (1:1) and the EFtsN peptide (3:1); also called PBP1b (Lys58–Ser804); source: purified (details in the supporting information)
T2 sequence (looked up): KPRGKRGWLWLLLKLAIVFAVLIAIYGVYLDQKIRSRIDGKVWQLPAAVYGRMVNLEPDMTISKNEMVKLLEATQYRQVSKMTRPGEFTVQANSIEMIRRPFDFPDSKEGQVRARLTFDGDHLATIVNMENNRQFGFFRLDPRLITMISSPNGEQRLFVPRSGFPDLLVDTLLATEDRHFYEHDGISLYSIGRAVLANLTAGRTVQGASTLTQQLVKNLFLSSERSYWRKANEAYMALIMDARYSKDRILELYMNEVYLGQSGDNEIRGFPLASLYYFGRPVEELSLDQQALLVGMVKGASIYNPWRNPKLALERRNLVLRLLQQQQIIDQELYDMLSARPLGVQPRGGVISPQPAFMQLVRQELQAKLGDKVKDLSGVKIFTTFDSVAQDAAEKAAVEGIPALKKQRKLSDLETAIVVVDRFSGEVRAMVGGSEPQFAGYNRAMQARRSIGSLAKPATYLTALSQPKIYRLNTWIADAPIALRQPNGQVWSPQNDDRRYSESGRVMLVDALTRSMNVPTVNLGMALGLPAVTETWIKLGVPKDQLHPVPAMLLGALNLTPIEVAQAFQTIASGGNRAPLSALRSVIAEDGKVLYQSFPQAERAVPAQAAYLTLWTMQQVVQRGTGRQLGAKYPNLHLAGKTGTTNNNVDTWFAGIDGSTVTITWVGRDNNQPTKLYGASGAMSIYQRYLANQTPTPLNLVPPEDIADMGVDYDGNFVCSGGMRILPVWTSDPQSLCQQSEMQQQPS

PBP1b^R141A/R397A = format: biochemical, Escherichia coli; details: versus PBP1b^WT; GTase, dansyl-lipid II; mean ± s.d. of three experiments
PBP1b = target: T3, PBP1b (Escherichia coli, UniProt P02919); details: cited from earlier work
T3 sequence (P02919 1-799 isoform P02919-2): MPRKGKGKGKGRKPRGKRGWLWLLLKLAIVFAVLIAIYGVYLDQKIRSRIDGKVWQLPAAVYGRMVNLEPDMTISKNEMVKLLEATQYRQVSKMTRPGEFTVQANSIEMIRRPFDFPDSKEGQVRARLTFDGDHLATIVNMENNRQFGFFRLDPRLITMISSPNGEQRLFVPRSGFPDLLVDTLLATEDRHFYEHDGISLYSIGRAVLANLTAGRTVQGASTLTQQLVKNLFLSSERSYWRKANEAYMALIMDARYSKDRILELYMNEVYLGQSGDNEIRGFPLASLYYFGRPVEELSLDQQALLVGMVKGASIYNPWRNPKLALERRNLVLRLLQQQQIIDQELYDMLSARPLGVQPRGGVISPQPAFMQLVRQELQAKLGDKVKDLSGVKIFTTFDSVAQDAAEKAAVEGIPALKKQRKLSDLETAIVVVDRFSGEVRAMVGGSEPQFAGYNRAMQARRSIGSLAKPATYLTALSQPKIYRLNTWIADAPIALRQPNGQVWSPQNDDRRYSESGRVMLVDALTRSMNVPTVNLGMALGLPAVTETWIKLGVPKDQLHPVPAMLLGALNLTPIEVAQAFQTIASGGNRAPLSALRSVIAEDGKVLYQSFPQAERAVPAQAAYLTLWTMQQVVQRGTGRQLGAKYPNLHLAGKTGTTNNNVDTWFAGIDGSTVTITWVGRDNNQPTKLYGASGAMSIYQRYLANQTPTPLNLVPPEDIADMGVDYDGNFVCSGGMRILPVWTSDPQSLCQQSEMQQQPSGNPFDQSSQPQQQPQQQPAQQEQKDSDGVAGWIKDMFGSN
Text: Bacteria generally have at least one bifunctional (GTase/TPase) PBP of class A and one monofunctional (TPase only) PBP of class B ([2], [13]). E. coli contains three aPBPs: PBP1a, 1b, and 1c, and two bPBPs: PBP2 and PBP3, the latter being involved in cell elongation and division, respectively ([14]). PBP1a and PBP1b are major PG synthases and at least one of them is required for cell viability ([15]).

[2] = target: T4, PBP1bγ (penicillin-binding protein 1b, gamma form) (E. coli, UniProt P02919-2 1-799); test: fluorescence polarisation; fluorescence anisotropy; FITC-Lys69–Gln93 probe at 100 nM, serial dilutions of the proteins in their specific buffer, 384-well plates, 30 min at 25 °C; details: both partners purified
T4 construct: also called 1b WT
T4 sequence (looked up): T3 sequence (P02919 1-799 isoform P02919-2)

B1: PBP1b^WT: PBP1b wild-type (protein)
chain: T3 sequence (P02919 1-799 isoform P02919-2)
Question: Which “cell length L” value [1] does the source give for B1 here?
Answer: 2.17 ± 0.46

B2: HisFtsN (full-length FtsN) (natural protein, E. coli, UniProt P29131 1-319, looked up)
chain: MAQRDYVRRSQPAPSRRKKSTSRKKQRNLPAVSPAMVAIAAAVLVTFIGGLYFITHHKKEESETLQSQKVTGNGLPPKPEERWRYIKELESRQPGVRAPTEPSAGGEVKTPEQLTPEQRQLLEQMQADMRQQPTQLVEVPWNEQTPEQRQQTLQRQRQAQQLAEQQRLAQQSRTTEQSWQQQTRTSQAAPVQAQPRQSKPASSQQPYQDLLQTPAHTTAQSKPQQAAPVARAADAPKPTAEKKDERRWMVQCGSFRGAEQAETVRAQLAFEGFDSKITTNNGWNRVVIGPVKGKENADSTLNRLKMAGHTNCIRLAAGG
Question: For B2, which “fold decrease in activation of the GTase activity of PBP1b R141A/R397A by FtsN against the WT protein, continuous fluorescence assay” value (PBP1b R141A/R397A) is on record?
Answer: 2 fold

B3: EFtsN peptide (Leu75–Gln93), unlabeled (peptide)
peptide: LPPKPEERWRYIKELESRQ
notes: FtsN, E. coli, residues Leu75–Gln93 (essential region around helix H2); also called essential region of FtsN; synthetic peptide Leu75–Gln93; source: synthetic peptide, bought: Synpeptide (Shanghai, China)
Question: Does B3 bind (PBP1b (positions 58–804))?
Answer: binds

B4: LpoB: outer-membrane lipoprotein LpoB (protein, UniProt P0AB38 20-213, looked up)
Penicillin-binding protein …: CVGQREPAPVEEVKPAPEQPAEPQQPVPTVPSVPTIPQQPGPIEHEDQTAPPAPHIRHYDWNGAMQPMVSKMLGADGVTAGSVLLVDSVNNRTNGSLNAAEATETLRNALANNGKFTLVSAQQLSMAKQQLGLSPQDSLGTRSKAIGIARNVGAHYVLYSSASGNVNAPTLQMQLMLVQTGEIIWSGKGAVSQQ
Question: With B4 as the molecule, how does the “activation of PBP1b^R141A/R397A by LpoB” value (PBP1b^R141A/R397A) read?
Answer: remained unchanged

Question: What about the “catalytic activities of PBP1b (literature)” value (PBP1b) of the same molecule?
Answer: stimulates both of its catalytic activities

B5: FITC-labeled peptide (FITC-Lys69–Gln93) of FtsN (peptide)
peptide: {FITC}-KVTGNGLPPKPEERWRYIKELESRQ
notes: also called F-EFtsN; fluorescent EFtsN peptide; source: synthetic peptide, bought: Synpeptide (Shanghai, China)
Question: For B5, which Kd [2] is on record?
Answer: 8.1 ± 1.7 µM
